These results are taken from the DeepSol protein solubility set.

The nature of the series: soluble on expression in E. coli; label from the status in PepcDB or PDB records.
Take “MKITNPVLKGFNPDPSICRAGEDYYIAVSTFEWFPGVQIHHSKDLVNWHLVAHPLQRVSQLDMKGNPNSGGVWAPCLSYSDGKFWLIYTDVKVVDGAWKDCHNYLVTCETINGDWSEPIKLNSSGFDASLFHDTDGKKYLLNMLWDHRIDRHSFGGIVIQEYSDKEQKLIGKPKVIFEGTDRKLTEAPHLYHIGNYYYLLTAEGGTRYEHAATIARSANIEGPYEVHPDNPILTSWHDPGNPLQKCGHASIVQTHTDEWYLAHLTGRPIHPDDDSIFQQRGYCPLGRETAIQKLYWKDEWPYVVGGKEGSLEVDAPSIPETIFEATYPEVDEFEDSTLNINFQTLRIPFTNELGSLTQAPNHLRLFGHESLTSTFTQAFVARRWQSLHFEAETAVEFYPENFQQAAGLVNYYNTENWTALQVTHDEELGRILELTICDNFSFSQPLNNKIVIPREVKYVYLRVNIEKDKYYYFYSFNKEDWHKIDIALESKKLSDDYIRGGGFFTGAFVGMQCQDTGGNHIPADFRYFRYKEK”: the “soluble on expression in E. coli” value was “soluble”.

Consider “MGSDKIHHHHHHMWSLMHPYLPATVRKWTNLNLSNHSFSLNTMKTKRLSEFFPGVRSYYIVGEIAIITPKRVNVDYNLVAEKIMQAHPKIKAVYLKKKVKGELRTNELEFLSGERISSTIYKENGVLFYVDINKVYVNPSLSGDRLKNLELVEEGSTVLDAFTGYGAIALNIAHKKRVYVVAGDINIDGLYMLKKSLSLNKIKGMIDIVQYDAHHLPFRDKVFKLSFGDNPTLIIDFKEELCRVSENVVFYILCESEDKANSSLGRTSWIKINDYSKNLFIFKGLVRC”, for which the “soluble on expression in E. coli” value is recorded as “not soluble”.

As for “MAHHHHHHMSLPASHTTTPATASPEVLLAACTAEVQQLRDALHEVTLRERDGCSGSRGGTGGVAGGALGDVWEGKYLAMIRKNRDLTVQLGTTQQQLAAAQKALQAEQEKTQRLVAAVTVSSLGARGAKAGSKSAAGAAGVDDGCNSNSGSKSGGGSSGSEGAAAASSAAVARVYDKLHQKQLAMAEVQRENVALRSLIQREVGLRDDTKEVNRLLRRATAVSSNGGSAAAAAGGTSASGADGGGWRGRAEEIVLLKSKLKDAQREVEEMAAAQSSSENGTDACTDPLSLPASVRAFLGASGDPAAEARSVVTTTTAQVRRPRRDVDDDARDRLSAMQQQRAAQQRQLAADLAELQQQLNEERMRSSALQARTKTMKSELDTLRSYVDTILEKSSTDDELVEAYKTELQRAHEEARHWRRVAADALKEAGGGKTSAALTVSGVHNGLNNAAAAAVRTAPYRKAAGDEKAVAAGGGDAGNVRGAPLPLPPPQPLTSFSRSLYEWVCQACDEVPEGKEQERTEPAVAASAKQLAAVLRQAFQHLVLVEQHTVAGNDMGHASTDSASSESILLKENAALKTRIRALSELMEKELQAQRVLWATAAAGAGATPSTETKERERQQ”, the “soluble on expression in E. coli” value is listed as “not soluble”.

Consider “MYGPGYAPYYGSPYGDPCYGPAYGPAYGPTYVQPIAQPVYVHDTRAEEACCAGACCMALFCCCAMNS”, for which the “soluble on expression in E. coli” value is given as “soluble”.

With “MAHHHHHHMKKKVELKFLGGLESYLEDKSKNVVTLEIESEKLSFENLIAYIRNHILVDRKDVFADHVLCDGTEFCQVVVDHVERKNYNLNEKAKIKPGIIVLINEYDWEIMHMYEYQIRDGDKLCFLSTLHGG”, the “soluble on expression in E. coli” value is reported as “not soluble”.

“MAHHHHHHMVMNDITKSDTHERKDEVTMDKGGMFNNFFECMNEQMKRIDRYHEDMSRMMNSMRTHYFSDELSKYFPSRRSLLDYDLGDARRNDLFFGKPQFLMDRFKNVPPMDVVDKDKEIEIKIDVPGLSKDNVQINLYNRNLEVSGDFKKTEETRDDEQRYYVKERSQTSFYRSFQLPENVCEDNIKATFKDGVLKIDIPKKDVLPEKKKKIEIQ”: the “soluble on expression in E. coli” value is given as “soluble”.

“MGSDKIHHHHHHMARYRVHVNDPLDKEATQLLMNKEELEVTSEHLEKDELMKIIPEVDVLVVRSATKVTADIIEAGKNLKIIARAGIGLDNIDVQKAKEKGIKVLNTPGASAPSVAELAMGLMLACARHIARATVSLKEGKWEKKALKGKELLGKTLGLIGFGNIGQEVAKRALAFGMKIIAYDPAKPETDLPVEYVDLDTLFKESDFISLHVPLTESTRHIINRESIAKMKDGVIIVNTARGGTIDEEALYEEVVSGKVYAAGLDVFEVEPPTDEIRRKLLSLDNVVATPHIGASTAEAQRRVGIELVEKIFKELGI”: the “soluble on expression in E. coli” value is “not soluble”.

For “MSFAIEIVIKAPMDIVCDYIIEDEKIKEWNTFIIENRYPSNMDKENPRVGDKYITVQKVGKKIFEAEVEILEYDAPHIISLGSEMKQGYSAMTYMLEEDEEGTALTLISEYEPSNFYYKMMYKLTGWISRGLTMEQMERLAECVEAAYHKEDLEHHHHHH”, the “soluble on expression in E. coli” value is “not soluble”.

On to “MKEVRIVFQPGEISVPVAAGTTIMEAMNRSGLGEDFPCGGRGKCGKCRVKVREGREDFTAIDEDHLTAQELAEGVRLACATKINRDMMVEMQSPKKLQHHILIDSAARAFHIHPHLVKVFAEIAQPSLSEHKSDWQRLQESLAGLGCSVHDLQAPLSVLRRLPDTLRESTNRVTTIVYGSQVLGVEQGDTTGTLLGMAFDIGTTTIVGYLLDLNSGRELEVVSTLNPQAQYGGDVISRITFAGKEEKGLDTLHQAVTGAMNRLIGEAVDKAGVSRTQLYGISVAANTTMHHLFLGITPRSIGMSPYVSAINQGLVVAPGELGLEINKAGRVFVLPNIAGFVGADTTAVLLASDLEKSDHVTLILDIGTNGEIVLGSKNRMVACSAAAGPAFEGAQITSGMRGADGAIDHISFDHGLSYTVIGNGRPIGICGSALLDGVAGFVELGMINKRGKFLEPEKLTHPSALKLKDRLIKYEETWAFQLVEAGQTRHGRPILITQNDIRELQLAKGAIAAGVRILQEAMGIECEDIKEVLLAGAFGNYLNPHSACVIGLIPRELESRIKTIGNAAGNGAKIALLSAQEFSRAKDLAGGVSFVELGSYPGFNTIFAQNTYFKLD”, for which the “soluble on expression in E. coli” value is listed as “soluble”.

With “MDIAVQLVDSGGGTLQAGKSLRLSCAISGLAFDGGAMGSEHRLTAGAMGWFRQAPGKDREFVAAISPRTDETYYAESLEGRFSVSRDAAATMVFLQADNVRLDDTASYYCAADEDVTPRVMGVIPHADHWGQGTLVTVSSAAALEHHHHHH”, the “soluble on expression in E. coli” value is on record as “soluble”.

Take “MFDFDGYMLRKAKSVNKALEAAVQMKEPLKIHESMRYSLLAGGKRVRPMLCIAACELVGGDESTAMPAACAVEMIHTMSLMHDDLPCMDNDDLRRGKPTNHMAFGESVAVLAGDALLSFAFEHVAAATKGAPPERIVRVLGELAVSIGSEGLVAGQVVDVCSEGMAEVGLDHLEFIHHHKTAALLQGSVVLGAILGGGKEEEVAKLRKFANCIGLLFQVVDDILDVTKSSKELGKTAGKDLVADKTTYPKLIGVEKSKEFADRLNREAQEQLLHFHPHRAAPLIALANYIAYRDN”: the “soluble on expression in E. coli” value is “soluble”.

On to “MQEEVNQKTVALSIRTTKLTGKVLAAALGKVVRALQKHHRKALTPQGRQSVKKLMNHYGGKSAMPYVGAPKDFDRIAKEFHVDYAFHKVSPGHYLLFFKANQADAITAAFQKYSAKVLNKEQDKASILGQLRKFTEQIRTQAKEKQRTREAVKDGR”, for which the “soluble on expression in E. coli” value was “not soluble”.

As to “MPKDELPNHNCIKHLRSVVQQQQSRIAELEKTRAEHKHQLAEQKRDIQLLKAYMRAIRSVNPNLQNLEETIEYNEILEWVNSLQPARVTRWGGMISTPDAVLQAVIKRSLVESGCPASIVNELIENAHERSWPQGLATLETRQMNRRYYENYVAKRIPGKQAVVVMACENQHMGDDMVQEPGLVMIFAHGVEEI”, the “soluble on expression in E. coli” value was “not soluble”.

In the case of “MSLAIQNPYTAYQQNSVNTATPGELTLMLYNGCLKFIRLAAQAIENDDMERKNENLIKAQNIIQELNFTLNRNIELSASMGAMYDYMYRRLVQANIKNDTGMLAEVEGYVTDFRDAWKQAIQSERKDRHGSGGIAEGGSHHHHHH”, the “soluble on expression in E. coli” value was “soluble”.

With “MASVHGITVKNAQGEDTPLSNYQGKVLIIVNVASQCGLTNSNYNQFKELLDVYKKDGLEVLAFPCNQFGGQEPSCEIDIAAFVADKFKFEPTLFQKIDVNGDNTAPLYKFLKQEKGGFLVDAIKWNFTKFLVGRDGHVIKRFSPTTEPKDMKKDIEAALQAKL”, the “soluble on expression in E. coli” value is “not soluble”.

In the case of “RAATQVGATTMDRPEWVAVHPDKKHVFCTLTNNKNRGKEGQPVGGPNPREKNNYGQIVRWMPAQGDHTSDVFAWDLYLIAGNPTVHKGTLYAGSENISADNMFNSPDGIGFDTAGRLWIQTDGNYSNQGDFAGQGNNQMLCGDPITGEVKRFLTGPIACEITGLTFSPDHKTMFVG”, the “soluble on expression in E. coli” value was “not soluble”.

As for “MRGSHHHHHHGSIWEWKEAHFQDAFSSFQAMYAKSYATEEEKQRRYAIFKNNLVYIHTHNQQGYSYSLKMNHFGDLSRDEFRRKYLGFKKSRNLKSHHLGVATELL”, the “soluble on expression in E. coli” value is listed as “soluble”.

Take “MKVGGIEDRQLEALKRAALKACELSYSPYSHFRVGCSILTNNDVIFTGANVENASYSNCICAERSAMIQVLMAGHRSGWKCMVICGDSEDQCVSPCGVCRQFINEFVVKDFPIVMLNSTGSRSKVMTMGELLPMAFGPSHLN”: the “soluble on expression in E. coli” value is “soluble”.

On to “MKTHKTKNDLPSNAKSTVIGILNESLASVIDLALVTKQAHWNLKGPQFIAVHELLDTFRTQLDNHGDTIAERVVQLGGTALGSLQAVSSTTKLKAYPTDIYKIHDHLDALIERYGEVANMIRKAIDDSDEAGDPTTADIFTAASRDLDKSLWFLEAHVQEKS”, for which the “soluble on expression in E. coli” value is given as “soluble”.

Turning to “MNSSILLEVFKNAFSSIAEEMGLVLQRTAFSPNIKERRDFSCAVFDKEGNLVAQAAHIPVHLGSMPLSVKEAIKAFKGEFEEGDMVVLNDPYMGGTHLPDITLVAPFFYKGELLFFLANRAHHADVGGATPGSMPLSTSIFQEGFIIPPLKLMKRGELNEDFMKVFLRNVRTPEEREGDFKAQIMANITGIKRLRELIEREGIEKVLFFSKELMNYSERIIRERIKALPEGEYEFEDYMEDDGYGRKDVKIHLKLKVEKEKLIFDFSKSDDQTRGGINAVRAITLSAVYYAVISLLGSDIPVNEGCFRPLEVITRKGSVVDAEFPAGVAGGNVETSQRIVDVVLGAFSKAIPEKVPAASQGTMNHVTIGGINPENGEPFTYYETIGGGMGASAKGDGESAVHSHMTNTLNTPIEALEHYYPILVTEYSIRKGSGGEGMHRGGDGIVREYEFLTDVEVTVLSERRRLAPYGLFGGKPGMPGINLIKTEEGEKEMPSKFSVYLKKGDRLRVETPGGGGYMKEE”, the “soluble on expression in E. coli” value is “not soluble”.

On to “MEDFKSGDLILGYYKVLEKLGEGNFGKVYKVEALKGRYKGKVFALKVASNPYSVHYLWKEAQTLILFHHQNIVSLQSYLYKKDKKELYLIYEYMDFGTLKDYVEKKGKLSPEEALKVLRHVVNALEYLHSRGYIHSDLKPENVFGKRVLGGVLWKLGDFSLVRIRGDVSIIDVKGTIGFIAPEIFRGEIHRSSDIYSLGCLTLYMLTGKVPFEGKDFKERKEKNKRGEVEIPEEIPGKLKDLLERMLEVDYKRRFRTARELKEYMVKEGLI”, for which the “soluble on expression in E. coli” value is “soluble”.

As for “MSLKYDVCIIGAGPAGYAAAMRALDLNKSVILIEKDKIGGAGLYNGAISSKTFWELAKDIQTARKRLAQYSPDQHFSVTYQQVLRQVREGIANRRFHLEGQIESLAKQQTSRFRYIKGSAKLVSHNTVEVSTGTEEEIIEAENVVIATGSKPRKLPNIPIDEKIIVTSDGVENFENFPKSLVILGAGVIGCEWATIFSNFGYTSVNIIDKAERILPFEDDDVTDVVEANMKKQGITVHKKSNLLSMRIVDGEVEYILEYTDGRKEMHRVEKVLVSVGRIPNTQNLGLERVGVNILANGQIENTDGQTNIPNIYVAGDISSDVALVNVAELEGRHVIEKMFGLSDSVITYNNVSTIMFVQPEVAGVGMNEKKALQNKMSYKVVKIRYDMIPRAIAMRNNDGFFKILVTNDADMKIIGMRAVGVHASSAIQAVALLISMDKGVEELADMIHPHPSIIEGIQECIRMLLGKSVLKPEFFKGMLSCKSCDENGCVNDIIYLREGHHHHHH”, the “soluble on expression in E. coli” value is on record as “soluble”.
